The values below come from patent EP4059949A1 (AFFILOGIC, dated 2022).

Experiment [1] deals with complement component C3b (obtained after hydrolysis of C3) (UniProt P01024). Description: biolayer interferometry. For orientation: In BLI a coated tip is dipped into the sample, and binding shifts an interference pattern.
Experiment [2] deals with T1, complement component C3b (obtained after hydrolysis of C3) (UniProt P01024 23-667; P01024 749-1663). Briefly: biolayer interferometry; B10 made by full chemical synthesis.
Experiment [3] has as its target T1, complement component C3b (obtained …). Briefly: biolayer interferometry; B10 made recombinantly in E. coli.
The target is the same in experiment [4]. Briefly: biolayer interferometry (Octet RED96), GFP tagged Nanofitin captured by anti-GFP Nanofitin, C3b in solution, 1:1 fit.

T1 sequence (P01024 23-667 limits assumed, chain 1 of 2): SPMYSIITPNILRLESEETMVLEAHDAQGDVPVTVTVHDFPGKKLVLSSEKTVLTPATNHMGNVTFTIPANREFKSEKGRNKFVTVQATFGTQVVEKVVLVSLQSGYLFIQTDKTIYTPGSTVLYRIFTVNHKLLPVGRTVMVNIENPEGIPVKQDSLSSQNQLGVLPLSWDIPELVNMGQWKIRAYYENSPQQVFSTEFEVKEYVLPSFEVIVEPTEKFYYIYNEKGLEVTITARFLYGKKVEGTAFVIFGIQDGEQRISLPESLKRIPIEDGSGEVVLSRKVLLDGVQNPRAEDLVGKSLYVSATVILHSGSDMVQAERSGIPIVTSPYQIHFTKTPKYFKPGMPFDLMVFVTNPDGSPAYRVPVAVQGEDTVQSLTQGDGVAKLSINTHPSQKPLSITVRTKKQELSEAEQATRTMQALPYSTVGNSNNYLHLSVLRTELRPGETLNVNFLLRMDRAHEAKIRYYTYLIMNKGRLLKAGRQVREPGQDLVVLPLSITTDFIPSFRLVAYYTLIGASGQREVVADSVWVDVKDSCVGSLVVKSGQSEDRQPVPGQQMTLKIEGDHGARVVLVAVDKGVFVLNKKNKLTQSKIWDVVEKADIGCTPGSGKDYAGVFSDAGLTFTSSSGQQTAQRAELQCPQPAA
T1 sequence (P01024 749-1663 limits assumed, chain 2 of 2): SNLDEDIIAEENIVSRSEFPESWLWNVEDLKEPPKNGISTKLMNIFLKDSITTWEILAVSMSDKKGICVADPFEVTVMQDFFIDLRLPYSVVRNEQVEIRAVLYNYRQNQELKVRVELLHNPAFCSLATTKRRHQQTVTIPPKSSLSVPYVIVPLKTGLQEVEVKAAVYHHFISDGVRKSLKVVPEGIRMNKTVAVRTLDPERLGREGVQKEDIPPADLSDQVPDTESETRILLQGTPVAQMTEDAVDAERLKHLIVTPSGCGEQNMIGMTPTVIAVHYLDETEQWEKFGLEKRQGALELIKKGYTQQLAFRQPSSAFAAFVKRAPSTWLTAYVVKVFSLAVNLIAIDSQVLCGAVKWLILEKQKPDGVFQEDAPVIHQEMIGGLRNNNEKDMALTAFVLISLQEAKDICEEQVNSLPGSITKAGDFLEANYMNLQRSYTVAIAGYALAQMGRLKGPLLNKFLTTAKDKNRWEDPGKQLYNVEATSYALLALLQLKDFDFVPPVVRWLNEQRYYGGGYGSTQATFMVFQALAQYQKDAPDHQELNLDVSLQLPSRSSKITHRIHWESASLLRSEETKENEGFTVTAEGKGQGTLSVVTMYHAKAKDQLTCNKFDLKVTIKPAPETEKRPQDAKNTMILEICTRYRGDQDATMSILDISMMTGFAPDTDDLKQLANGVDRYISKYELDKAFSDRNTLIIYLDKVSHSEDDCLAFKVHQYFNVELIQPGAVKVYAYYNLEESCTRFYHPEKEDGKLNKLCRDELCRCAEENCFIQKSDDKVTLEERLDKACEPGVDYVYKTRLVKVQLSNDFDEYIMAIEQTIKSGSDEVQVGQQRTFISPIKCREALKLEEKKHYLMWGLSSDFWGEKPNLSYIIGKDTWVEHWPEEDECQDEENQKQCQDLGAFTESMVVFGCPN
Sequence of complement component C3b (obtained after hydrolysis of C3) (UniProt P01024) (P01024 23-667 limits assumed, chain 1 of 2): as the sequence (P01024 23-667 limits assumed, chain 1 of 2) above
Sequence of complement component C3b (obtained after hydrolysis of C3) (UniProt P01024) (P01024 749-1663 limits assumed, chain 2 of 2): as the sequence (P01024 749-1663 limits assumed, chain 2 of 2) above

B1: anti-C3 Nanofitin B10 with N-terminal peptide (10-mers) and C-terminal 30 kDa protein (designed binder, part only; not given: peptide tag and 30 kDa protein, not shown: small tags and cut ends)
chain, part: MVKVKFDATGEEKEVDTSKISAVYRTGKDVLFSYDDNGKIGWGYVSEKDAPKELLDLLARAERE
As a reminder, the Kd is a measure of binding affinity in units of concentration. In experiment [1], B1 showed a Kd of 7.3 nM.

B2: anti-C3 Nanofitin B10 without N- or C-terminal tag (designed binder)
chain: MVKVKFDATGEEKEVDTSKISAVYRTGKDVLFSYDDNGKIGWGYVSEKDAPKELLDLLARAERE
notes: also called Nter tag none, Cter tag none
Take B2: the dissociation constant (Kd) was 18 nM in experiment [2] and 18.5 nM in experiment [3].

B3: B10 (SEQ ID NO: 25), GFP tagged Nanofitin (designed binder)
chain: MVKVKFDATGEEKEVDTSKISAVYRTGKDVLFSYDDNGKIGWGYVSEKDAPKELLDLLARAERE
notes: Variant of Nf1 from off-rate selection; not shown: GFP tag
Usually koff stands for the first-order rate constant of dissociation. As usually defined, the kon is the second-order rate constant of association. A low value points to slow association. In experiment [4], B3 yielded a Kd of 7.31 nM, a koff of 0.000433 s⁻¹ and a kon of 59200 M⁻¹ s⁻¹.

B4: anti-C3 Nanofitin B10 with N-terminal 48 kDa protein (designed binder, part only; not given: 48 kDa fusion protein, part only)
chain, part: MVKVKFDATGEEKEVDTSKISAVYRTGKDVLFSYDDNGKIGWGYVSEKDAPKELLDLLARAERE
In experiment [1], B4 gave a Kd of 6.7 nM.

B5: H03 (SEQ ID NO: 26), GFP tagged Nanofitin (designed binder)
chain: MVKVKFAATGEEKEVDTSKIANVYRVGKDVLFSYDDNGKIGWGYVSEKDAPKELLDLLARAERE
notes: as for B3
As for B5, in experiment [4], the Kd amounted to 2.89 nM, the koff was 0.000188 s⁻¹ and the kon worked out at 65200 M⁻¹ s⁻¹.
